Values quoted from earlier work in article PMC4454452.

Tests used:
[1] = target: Histone H3 peptide (H3K9me0) (Homo sapiens) (UniProt P68431)
[2] = target: Histone H3 peptide (H3K9me3) (Homo sapiens) (UniProt P68431)

CHD4 PHD2, sequence (Q14839 449-496): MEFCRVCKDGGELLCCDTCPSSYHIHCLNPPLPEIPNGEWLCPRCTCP

CHD4 PHD2 (from UniProt Q14839)
Kd [1]: 19 µM
Kd [2]: 0.9 µM
